Where a chain is given by its changes, count along the chain named.
T1: human beta-Klotho (KLB) (human, UniProt Q86Z14 53-997)
T1 construct: also called human KLB
T1 sequence (looked up): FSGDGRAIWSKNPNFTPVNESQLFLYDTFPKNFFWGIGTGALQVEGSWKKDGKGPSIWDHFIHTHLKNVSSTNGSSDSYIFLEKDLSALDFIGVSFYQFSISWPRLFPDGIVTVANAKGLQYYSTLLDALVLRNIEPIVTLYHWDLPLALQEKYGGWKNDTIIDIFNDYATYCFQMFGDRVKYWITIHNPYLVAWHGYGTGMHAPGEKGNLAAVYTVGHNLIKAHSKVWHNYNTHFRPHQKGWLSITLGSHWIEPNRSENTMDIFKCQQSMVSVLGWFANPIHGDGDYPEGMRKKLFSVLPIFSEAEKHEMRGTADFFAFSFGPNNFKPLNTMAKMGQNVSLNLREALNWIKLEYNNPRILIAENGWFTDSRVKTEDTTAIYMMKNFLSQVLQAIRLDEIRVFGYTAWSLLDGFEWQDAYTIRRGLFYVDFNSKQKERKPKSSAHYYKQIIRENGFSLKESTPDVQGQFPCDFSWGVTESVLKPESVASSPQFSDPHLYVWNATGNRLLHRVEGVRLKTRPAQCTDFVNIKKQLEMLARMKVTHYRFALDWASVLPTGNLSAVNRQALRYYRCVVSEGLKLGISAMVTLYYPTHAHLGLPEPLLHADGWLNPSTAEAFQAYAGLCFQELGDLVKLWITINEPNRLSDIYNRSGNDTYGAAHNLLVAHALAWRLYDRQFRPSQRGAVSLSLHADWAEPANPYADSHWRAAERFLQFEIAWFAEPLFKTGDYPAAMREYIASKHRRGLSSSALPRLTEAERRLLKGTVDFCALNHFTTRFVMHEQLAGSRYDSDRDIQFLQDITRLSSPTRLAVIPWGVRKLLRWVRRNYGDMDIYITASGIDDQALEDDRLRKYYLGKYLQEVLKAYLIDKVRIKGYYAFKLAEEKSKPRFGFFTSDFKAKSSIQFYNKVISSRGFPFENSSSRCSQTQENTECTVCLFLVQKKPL

T2: human beta-Klotho (KLB) (human, UniProt Q86Z14 53-997)
T2 construct: Bought protein; also called human KLB; β-Klotho
T2 sequence (looked up): T1 sequence (looked up)

B1: 16H7 variant, light chain Q88M (antibody, IgG4, V domains shown)
VH: not shown
VL: SYVLTQPPSVSVAPGQTARITCGGNNIGSESVHWYQQKPGQAPVLVVYDDSDRPSGIPERFSGSNSGNTATLTISRVEAGDEADYYCMVWDGNSDHVVFGGGTKLTVLG
notes: IgG4 backbone; copies: 2 + 2
B2: 16H7 light chain variant V32R (antibody, IgG4, V domains shown)
VH: not shown
VL: B1 VL with V32R, M88Q
notes: IgG4 backbone
B3: 16H7 light chain variant D50A (antibody, IgG4, V domains shown)
VH: not shown
VL: B1 VL with D50A, M88Q
notes: IgG4 backbone
B4: 16H7 light chain variant D50H (antibody, IgG4, V domains shown)
VH: not shown
VL: B1 VL with D50H, M88Q
notes: IgG4 backbone
B5: 16H7 variant, light chain R53S (antibody, human IgG4 S228P, lambda, V domains shown)
VH: not shown
VL: B1 VL with R53S, M88Q
notes: IgG4 backbone
B6: 16H7 variant, light chain S55G (antibody, human IgG4 S228P, lambda, V domains shown)
VH: not shown
VL: B1 VL with S55G, M88Q
notes: IgG4 backbone
B7: 16H7 variant, light chain S55E (antibody, IgG4, V domains shown)
VH: not shown
VL: B1 VL with S55E, M88Q
notes: IgG4 backbone; copies: 2 + 2
B8: 16H7 variant, light chain S55D (antibody, human IgG4 S228P, lambda, V domains shown)
VH: not shown
VL: B1 VL with S55D, M88Q
notes: IgG4 backbone
B9: 16H7 variant, light chain R53A (antibody, human IgG4 S228P, lambda, V domains shown)
VH: not shown
VL: B1 VL with R53A, M88Q
notes: IgG4 backbone
B10: 16H7 variant, light chain R53L (antibody, human IgG4 S228P, lambda, V domains shown)
VH: not shown
VL: B1 VL with R53L, M88Q
notes: IgG4 backbone
B11: 16H7 light chain variant D50C (antibody, IgG4, V domains shown)
VH: not shown
VL: B1 VL with D50C, M88Q
notes: IgG4 backbone
B12: 16H7 variant, light chain R53C (antibody, human IgG4 S228P, lambda, V domains shown)
VH: not shown
VL: B1 VL with R53C, M88Q
notes: IgG4 backbone
B13: 16H7 variant, light chain R53H (antibody, human IgG4 S228P, lambda, V domains shown)
VH: not shown
VL: B1 VL with R53H, M88Q
notes: IgG4 backbone
B14: 16H7 variant, light chain S55P (antibody, human IgG4 S228P, lambda, V domains shown)
VH: not shown
VL: B1 VL with S55P, M88Q
notes: IgG4 backbone
B15: 16H7 light chain variant D49G (antibody, IgG4, V domains shown)
VH: not shown
VL: B1 VL with D49G, M88Q
notes: IgG4 backbone
B16: 16H7 variant, light chain S55T (antibody, human IgG4 S228P, lambda, V domains shown)
VH: not shown
VL: B1 VL with S55T, M88Q
notes: IgG4 backbone
B17: 16H7 variant, light chain S55Y (antibody, IgG4, V domains shown)
VH: not shown
VL: B1 VL with S55Y, M88Q
notes: IgG4 backbone; copies: 2 + 2
B18: 16H7 variant, light chain R53P (antibody, human IgG4 S228P, lambda, V domains shown)
VH: not shown
VL: B1 VL with R53P, M88Q
notes: IgG4 backbone
B19: 16H7 variant, light chain S55V (antibody, human IgG4 S228P, lambda, V domains shown)
VH: not shown
VL: B1 VL with S55V, M88Q
notes: IgG4 backbone
B20: 16H7 light chain variant D49W (antibody, IgG4, V domains shown)
VH: not shown
VL: B1 VL with D49W, M88Q
notes: IgG4 backbone
B21: 16H7 variant, light chain S55L (antibody, IgG4, V domains shown)
VH: not shown
VL: B1 VL with S55L, M88Q
notes: IgG4 backbone; copies: 2 + 2
B22: 16H7 variant, light chain S51G (antibody, human IgG4 S228P, lambda, V domains shown)
VH: not shown
VL: B1 VL with S51G, M88Q
notes: IgG4 backbone
B23: 16H7 variant, light chain R53K (antibody, human IgG4 S228P, lambda, V domains shown)
VH: not shown
VL: B1 VL with R53K, M88Q
notes: IgG4 backbone
B24: 16H7 variant, light chain S55H (antibody, human IgG4 S228P, lambda, V domains shown)
VH: not shown
VL: B1 VL with S55H, M88Q
notes: IgG4 backbone
B25: 16H7 variant, light chain S55C (antibody, human IgG4 S228P, lambda, V domains shown)
VH: not shown
VL: B1 VL with S55C, M88Q
notes: IgG4 backbone
B26: 16H7 light chain variant D50F (antibody, IgG4, V domains shown)
VH: not shown
VL: B1 VL with D50F, M88Q
notes: IgG4 backbone
B27: 16H7 light chain variant D50G (antibody, IgG4, V domains shown)
VH: not shown
VL: B1 VL with D50G, M88Q
notes: IgG4 backbone
B28: 16H7 light chain variant D49S (antibody, IgG4, V domains shown)
VH: not shown
VL: B1 VL with D49S, M88Q
notes: IgG4 backbone
B29: 16H7 variant, light chain S55F (antibody, IgG4, V domains shown)
VH: not shown
VL: B1 VL with S55F, M88Q
notes: IgG4 backbone; copies: 2 + 2
B30: 16H7 variant, light chain S55N (antibody, human IgG4 S228P, lambda, V domains shown)
VH: not shown
VL: B1 VL with S55N, M88Q
notes: IgG4 backbone
B31: 16H7 variant, light chain R53Q (antibody, human IgG4 S228P, lambda, V domains shown)
VH: not shown
VL: B1 VL with R53Q, M88Q
notes: IgG4 backbone
B32: 16H7 variant, light chain R53I (antibody, human IgG4 S228P, lambda, V domains shown)
VH: not shown
VL: B1 VL with R53I, M88Q
notes: IgG4 backbone
B33: 16H7 variant, light chain R53T (antibody, human IgG4 S228P, lambda, V domains shown)
VH: not shown
VL: B1 VL with R53T, M88Q
notes: IgG4 backbone
B34: 16H7 variant, light chain S55R (antibody, IgG4, V domains shown)
VH: not shown
VL: B1 VL with S55R, M88Q
notes: IgG4 backbone; copies: 2 + 2
B35: 16H7 variant, light chain R53M (antibody, human IgG4 S228P, lambda, V domains shown)
VH: not shown
VL: B1 VL with R53M, M88Q
notes: IgG4 backbone
B36: 16H7 light chain variant D50E (antibody, IgG4, V domains shown)
VH: not shown
VL: B1 VL with D50E, M88Q
notes: IgG4 backbone
B37: 16H7 variant, light chain S55I (antibody, human IgG4 S228P, lambda, V domains shown)
VH: not shown
VL: B1 VL with S55I, M88Q
notes: IgG4 backbone

Experiments:
[1] = target: human FGFR1c/KLB cell surface receptor complex on iLite FGF21 reporter cells (human, UniProt P11362 22-822; Q86Z14 1-1044); test: cell-based or functional assay
human FGFR1c/KLB cell surface receptor complex on iLite FGF21 reporter cells, sequence (P11362 22-822, chain 1 of 2): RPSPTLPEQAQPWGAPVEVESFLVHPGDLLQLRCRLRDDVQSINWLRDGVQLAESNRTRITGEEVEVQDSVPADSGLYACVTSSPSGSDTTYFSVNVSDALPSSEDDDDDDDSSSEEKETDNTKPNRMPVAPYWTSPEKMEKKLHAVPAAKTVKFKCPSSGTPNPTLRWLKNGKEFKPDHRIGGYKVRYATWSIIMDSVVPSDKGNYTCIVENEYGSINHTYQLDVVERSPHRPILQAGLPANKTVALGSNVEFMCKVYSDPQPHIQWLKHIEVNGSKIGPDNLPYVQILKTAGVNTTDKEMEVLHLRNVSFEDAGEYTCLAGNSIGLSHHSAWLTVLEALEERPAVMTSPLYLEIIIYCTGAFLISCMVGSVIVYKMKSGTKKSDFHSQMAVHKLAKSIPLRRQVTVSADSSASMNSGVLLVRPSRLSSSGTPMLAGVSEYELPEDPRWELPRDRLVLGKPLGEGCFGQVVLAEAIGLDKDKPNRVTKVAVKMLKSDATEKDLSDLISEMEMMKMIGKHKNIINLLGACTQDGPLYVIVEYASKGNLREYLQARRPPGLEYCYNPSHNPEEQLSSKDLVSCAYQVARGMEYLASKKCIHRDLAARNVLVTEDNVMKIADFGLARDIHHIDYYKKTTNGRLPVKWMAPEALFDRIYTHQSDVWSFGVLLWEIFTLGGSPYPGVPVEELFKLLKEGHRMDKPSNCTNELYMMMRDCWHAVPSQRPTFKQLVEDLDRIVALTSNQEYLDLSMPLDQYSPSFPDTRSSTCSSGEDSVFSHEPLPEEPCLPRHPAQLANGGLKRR
human FGFR1c/KLB cell surface receptor complex on iLite FGF21 reporter cells, sequence (Q86Z14 whole entry, chain 2 of 2): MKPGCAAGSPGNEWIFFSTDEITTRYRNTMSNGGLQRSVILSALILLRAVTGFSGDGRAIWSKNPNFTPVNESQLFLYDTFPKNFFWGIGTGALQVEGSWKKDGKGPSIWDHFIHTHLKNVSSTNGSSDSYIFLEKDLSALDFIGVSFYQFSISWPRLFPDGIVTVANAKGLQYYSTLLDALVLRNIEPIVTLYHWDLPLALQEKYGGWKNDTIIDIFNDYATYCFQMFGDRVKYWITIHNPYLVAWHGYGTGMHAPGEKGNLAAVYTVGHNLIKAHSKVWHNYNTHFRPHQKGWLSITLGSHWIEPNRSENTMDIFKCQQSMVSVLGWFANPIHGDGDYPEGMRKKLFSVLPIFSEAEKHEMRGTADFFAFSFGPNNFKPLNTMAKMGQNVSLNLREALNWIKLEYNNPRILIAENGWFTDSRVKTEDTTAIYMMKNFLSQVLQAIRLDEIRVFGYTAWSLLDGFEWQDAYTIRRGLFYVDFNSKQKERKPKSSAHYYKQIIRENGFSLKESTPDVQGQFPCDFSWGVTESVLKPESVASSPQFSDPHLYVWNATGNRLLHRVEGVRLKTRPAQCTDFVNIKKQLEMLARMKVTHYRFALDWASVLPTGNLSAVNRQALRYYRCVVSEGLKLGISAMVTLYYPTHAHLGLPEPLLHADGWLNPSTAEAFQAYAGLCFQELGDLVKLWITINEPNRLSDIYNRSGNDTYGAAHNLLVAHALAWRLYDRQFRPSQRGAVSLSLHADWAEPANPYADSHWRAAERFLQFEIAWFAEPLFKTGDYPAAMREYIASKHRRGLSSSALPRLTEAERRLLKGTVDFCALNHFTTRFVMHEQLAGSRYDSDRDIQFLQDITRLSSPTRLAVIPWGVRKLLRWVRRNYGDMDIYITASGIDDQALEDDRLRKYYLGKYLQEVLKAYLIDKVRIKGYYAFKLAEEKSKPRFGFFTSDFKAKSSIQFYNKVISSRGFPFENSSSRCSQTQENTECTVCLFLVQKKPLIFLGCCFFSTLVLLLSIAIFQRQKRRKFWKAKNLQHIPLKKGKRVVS

human beta-Klotho (KLB) [2] = target: T1, human beta-Klotho (KLB); test: BLI off-rate screen (Octet), Ab captured via Fc;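 further: antibody supernatants applied at 25 µg/mL, dissociation monitored over 1800 s in D-PBS with 0.1% BSA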
[3] = target: cell surface receptor composed of FGFR1c and co-receptor beta-Klotho (KLB) (human, UniProt P11362 22-822; Q86Z14 1-1044); test: cell-based or functional assay
cell surface receptor composed of FGFR1c and co-receptor beta-Klotho (KLB), sequence (P11362 22-822, chain 1 of 2): as the sequence (P11362 22-822, chain 1 of 2) above
cell surface receptor composed of FGFR1c and co-receptor beta-Klotho (KLB), sequence (Q86Z14 whole entry, chain 2 of 2): as the sequence (Q86Z14 whole entry, chain 2 of 2) above

human beta-Klotho (KLB) [4] = target: T2, human beta-Klotho (KLB); test: BLI off-rate screening (Octet), crude supernatant;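 further: supernatants tested at 25 µg/mL, dissociation from biosensors recorded in D-PBS with 0.1% BSA over 1800 s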
Wherever Mean E max (%) is given: reference of the scale not given here.
Wherever Mean E max, Luciferase reporter gene assay is given: reference of the scale not given here.

Binder | Mean E max (%) [1] [%] | Mean EC50 [1] [nM] | koff (human beta-Klotho (KLB) [2]) [s⁻¹] | Mean E max, Luciferase reporter gene assay [3] [%] | Mean EC50, Luciferase reporter gene assay [3] [nM] | koff (human beta-Klotho (KLB) [4]) [s⁻¹]
B1 | 90 | 0.104 | 9.9e-05 |  |  | 
B2 |  |  |  | 112 | 0.135 | 2.3e-06
B3 |  |  |  | 105 | 0.211 | 7.6e-05
B4 |  |  |  | 94 | 0.126 | 0.00019
B5 | 105 | 0.113 | 0.00029 |  |  | 
B6 | 104 | 0.128 | 3.5e-05 |  |  | 
B7 | 106 | 0.141 | 3.8e-05 |  |  | 
B8 | 109 | 0.146 | 3.6e-05 |  |  | 
B9 | 89 | 0.132 | 0.0002 |  |  | 
B10 | 106 | 0.151 | 2e-05 |  |  | 
B11 |  |  |  | 109 | 0.153 | 3.9e-05
B12 | 107 | 0.147 | 0.00044 |  |  | 
B13 | 103 | 0.153 | 0.00015 |  |  | 
B14 | 99 | 0.109 | 3.2e-05 |  |  | 
B15 |  |  |  | 102 | 0.102 | 0.00029
B16 | 100 | 0.109 | 1.3e-05 |  |  | 
B17 | 113 | 0.126 | 1.8e-05 |  |  | 
B18 | 92 | 0.126 | 0.00028 |  |  | 
B19 | 100 | 0.131 | 4.4e-05 |  |  | 

Binder | Mean E max (%) [1] [%] | Mean EC50 [1] [nM] | koff (human beta-Klotho (KLB) [2]) [s⁻¹] | Mean E max, Luciferase reporter gene assay [3] [%] | Mean EC50, Luciferase reporter gene assay [3] [nM] | koff (human beta-Klotho (KLB) [4]) [s⁻¹]
B20 |  |  |  | 101 | 0.126 | 0.00032
B21 | 97 | 0.126 | 8.4e-05 |  |  | 
B22 | 104 | 0.129 | 0.0001 |  |  | 
B23 | 98 | 0.114 | 4e-05 |  |  | 
B24 | 111 | 0.122 | 4e-06 |  |  | 
B25 | 91 | 0.244 | 6.3e-05 |  |  | 
B26 |  |  |  | 113 | 0.124 | 0.0001
B27 |  |  |  | 107 | 0.136 | 1.7e-05
B28 |  |  |  | 98 | 0.098 | 9.9e-05
B29 | 97 | 0.095 | 2.4e-05 |  |  | 
B30 | 111 | 0.141 | 1.7e-05 |  |  | 
B31 | 100 | 0.131 | 0.00024 |  |  | 
B32 | 100 | 0.151 | 1.7e-05 |  |  | 
B33 | 109 | 0.134 | 8.7e-05 |  |  | 
B34 | 100 | 0.143 | 4.9e-05 |  |  | 
B35 | 95 | 0.099 | 0.00018 |  |  | 
B36 |  |  |  | 91 | 0.123 | 0.00016
B37 | 110 | 0.133 | 1.3e-05 |  |  | 
